Source: publication PMC3309923

Target: Fc6 (recombinant human IgG1 Fc protein) (human)
Assay: SEC; analytical SEC of the Protein A purified reaction products on TSKgel SuperSW3000; native, non-reducing; 50 mM sodium phosphate pH 7.4, 300 mM NaCl, 25 °C

stoichiometry N: 2
Substance: Fc6 (recombinant human IgG1 Fc protein) (domain or fragment)
